According to US20140256614:

Biological target: T1, MK2-activating peptide (transduction domain YARAAARQARA coupled to a Kaposin-derived region)
T1 chain: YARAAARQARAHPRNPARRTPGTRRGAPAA

B1: MK2 (endogenous, in mouse embryonic fibroblasts, MEF) (protein)
chain: MLSGSPGQTPPAPFPSPPPPAPAQPPPPFPQFHVKSGLQIRKNAITDDYKVTSQVLGLGINGKVLRIFDKRTQQKFALKMLQDCPKARREVELHWRASQCPHIVHIVDVYENLYAGRKCLLIVMECLDGGELFSRIQDRGDQAFTEREASEIMKSIGEAIQYLHSINIAHRDVKPENLLYTSKRPNAILKLTDFGFAKETTSHNSLTTPCYTPYYVAPEVLGPEKYDKSCDMWSLGVIMYILLCGYPPFYSNHGLAISPGMKTRIRMGQYEFPNPEWSEVSEEVKMLIRNLLKTEPTQRMTITEFMNHPWIMQSTKVPQTPLHTSRVLKEDKERWEDVKEEMTSALATMRVDYEQIKIKKIEDASNPLLLKRRKKARAVEDAALAH
phosphorylated HSP27 by immunoblot, time course at 50 µM peptide, MEF: significant MK2 activation was observed by 15 minutes of treatment
